Strand notation (5' to 3'): a small letter for the sugar, then the base; units joined by * are phosphorothioate-linked, units joined directly phosphodiester-linked; [ ] holds rarer units or linkages, { } end groups; capitals alone tell only the bases. m = 2'-O-methyl; r = 2'-OH (RNA)
Tests used:
[1] = test system: HBV-infected cells; assay: Base editors with reduced off-target activity (BE4, ppApo, rrA3F): editing and HBsAg in HBV-infected cells; format: cell-based, Hepatitis B virus; details: base editor in combination with gRNA37 and gRNA40
Source text: FIG. 22 provides a bar graph showing base editing at the sites targeted by gRNA37 and gRNA40. Cells were contacted with BE4, ppApo, or rrA3F in combination with gRNA37 and gRNA40.
Thus, all three base editor systems had antiviral activity. The negative control (HBV) was untreated cells and the control (contr) was gRNA targeting the PCSK9 gene.
It may be advantageous to use base editors that have reduced off-target activity and lower non-specific effects (e.g., as compared to BE4) without compromising editing efficiencies. Thus, experiments were undertaken to evaluate the antiviral efficacy of base editor systems containing ppApo or rrA3F, which are described in Yu, et al. “Cytoxine base editors with minimized unguided DNA and RNA off-target events and high on-target activity,” Nature Communications, 11:2052 (2020), DOI: 10.1038/s41467-020-15887-5, the disclosure of which is incorporated herein by reference in its entirety for all purposes.

[2] = test system: Hepatitis B virus; assay: HBV minicircle (HBVcircle) mouse model: serum HBsAg, HBeAg, HBV DNA after LNP injection; format: in vivo
Source text: Having established the efficacy of these base editing reagents in vitro, experiments were then undertaken to evaluate these same base editing reagents for antiviral efficacy in vivo using the HBV minicircle mouse model. […] After establishing HBV viral replication, hepatic delivery of the base editing reagents was achieved via systemic administration of lipid nanoparticles (LNPs) formulated with the following base editing reagents: CBE mRNA and HBV-targeting gRNAs (e.g., gRNA37 and gRNA40 (see Table 1)). The mice were administered a combination of base editors, where the combination was either gRNA37 and gRNA40 or gRNA37-HM and gRNA40-HM. The guides gRNA37-HM and gRNA40-HM each included heavily modified(HM) scafolds (see Table 1).
Table 23 below provides a summary of the experimental design used to evaluate the base editing reagents in vivo. The mice contained an HBVcircle polynucleotide that enabled HBV replication in vivo. See, for example Yan et al., J. Hepatol 2017 66:1149-1157 for a description of an exemplary mouse model. The mice were administered lipid nanoparticles (BL4 LNP) containing mRNA encoding BE4 (a cytidine base editor) and either the guide RNAs gRNA37 and gRNA40 or the guide RNAs gRNA37-HM and gRNA-40-HM containing a scaffold with heavy modifications (HM). […] HBsAg, HbeAg, and HBV DNA levels in serum were measured weekly (FIGS. 24A-24C and 25A-25C). […]

[3] = test system: HBV genome in HEK293T cells transduced with a lentiviral vector; assay: Base editing efficiency in Hek293-lentiHBV system (PCR amplicons sequenced on MiSeq); format: cell-based, Hepatitis B virus; design: Editing Efficiency 2 (%): concentration or dose not given beside the values; details: for Average Editing Efficiency (%): average of 3, base editor Cas12b-ABE; for Average Editing Efficiency (%) / Editing Efficiency 1 (%) / Editing Efficiency 2 (%) / Editing Efficiency 3 (%): plasmid transfection, four days; for Editing Efficiency 1 (%): replicate 1, base editor Cas12b-ABE; for Editing Efficiency 2 (%): replicate 2, base editor Cas12b-ABE; for Editing Efficiency 3 (%): replicate 3, base editor Cas12b-ABE
[4] = test system: Hepatitis B virus; assay: Antiviral efficacy in HBV-infected primary human hepatocytes (HBV-PHH): HBsAg, HBeAg, HBV DNA, 3.5 kb RNA, rebound; format: cell-based; details: HBV-PHH system, guide RNA + mRNA encoding base editor
Source text: (§1) Base editor systems comparing guide RNAs evaluated in Example 1 were subsequently tested for anti-viral and editing efficacy using the Hepatitis B virus-primary human hepatocyte (HBV-PHH) system. Cells were transfected with the guide RNAs and mRNAs encoding the base editor as described in Example 1. […] Guide RNAs ABE-133, MSPbeam94, and ABE-85 were associated with a 70-80% reduction of HBV DNA as compared to controls. The guide RNAs PolyA-NGC1 and PolyA-NGC2 were associated with high editing followed by 90% efficacy in reduction of HbeAg.
The HBV-PHH system for studying the Hepatitis B virus is described, for example, by Winer, et al., “Long-term hepatitis B infection in a scalable hepatic co-culture system,” Nat. Commun. 8:125 (2017) and by Zhou, et al. “Long-term maintenance of human fetal hepatocytes and prolonged susceptibility to HBV infection by co-culture with non-parenchymal cells,” J. Virol Methods, 195:185-93 (2014); and is provided commercially by ImQuest BioSciences (imquestbio.com/programs/virology/hbv/)).
(§2) The design of the experiments is described schematically in FIG. 14. Primary human hepatocyte (PHH) cells were infected with HBV at day 0. At days 4 and 11, the cells were transfected with mRNA encoding BE4 and with gRNA37 and gRNA40. Measurements of HBV DNA were taken over time, and measurements of HBsAg, HBeAG, HBV total DNA, 3.5 kb RNA, and cccDNA editing were taken at day 25. The experiments were carried out using a PHH co-culture system available from PhoenixBio. The PHH co-culture system maintained hepatocyte differentiation and metabolic activity for over 30 days. The HBV infection in the cells was persistent and a cccDNA level was maintained.
(§3) The design of the experiments is described schematically in FIG. 18. Primary human hepatocyte (PHH) cells were infected with HBV at day 0, at day 4 an 8-day. Treatment with lamivudine commenced (which included a 3-day pretreatment period within the 8-day total), and cells were transfected with mRNA encoding BE4 and the gRNAs gRNA37 and gRNA40 at days 7 and 14. HBV DNA levels were measured over time, and additional HBV markers were measured at day 21.
(§4) Primary hepatocytes (PHH) co-cultures infected with HBV were used to test antiviral efficacy of base editing systems. Primary hepatocyte co-culture (PHH) infected with HBV virus is a clinically relevant system for assessing anti-viral activity of base editing systems. The base editing reagents (mRNA encoding a base editor(s) and synthetic gRNA) were transfected via lipofection twice over the course of two weeks. The first transfection was performed about 3, 4, or 7 days after infection (days post infection (dpi)). Not being bound by theory, this 3-to-7-day period ensured that the cccDNA was completely formed at the time of the transfection. The second transfection was at about 7, 10, 11, or 14 days after infection. Extracellular parameters (e.g., HBsAg, HBeAg, and HBV DNA) were monitored over the course of the experiment (including the end of the experiment) and intracellular parameters (HBV DNA, viral RNA, and editing) were measured at the end of the experiment. Cells were lysed at the termination of the experiment (e.g., at 15, 17, 21, or 25 days).
(§5) Transfection details: RNA format, 800 ng total RNA per well in a 24 well plate (600 ng base editor-encoding mRNA+200 ng gRNA) transfected via lipofection (lipofectamin messengerMax, thermofisher Scientific) according to the vendor protocol.

[5] = test system: HBV cccDNA; assay: Base editing of HBV cccDNA in primary human hepatocytes (HBV-PHH); format: cell-based, Hepatitis B virus; details: HBV-PHH system
Source text: as §1
Having identified gRNA37 and gRNA40 as effective gRNAs, the antiviral efficacy of a base editor system containing BE4, gRNA37 and gRNA40 (i.e., multiplexing gRNAs) was evaluated, FIGS. 8-10. It was determined that the base editor system multiplexed with the two gRNAs was associated with a reduction of HBV viral parameters in HepG2-NTCP cells, see FIG. 9. […] For the evaluation of editing of cccDNA, the cccDNA was enriched via Hirt extraction and ExoI/ExoIII nuclease treatment to remove rcDNA (relaxed circular DNA). Throughout the Examples provided herein, editing of cccDNA was evaluated using next generation sequencing completed using cccDNA enriched in this way.
as §2, §3, §4, §5

Molecule: BE4: cytidine base editor polypeptide, SEQ ID NO: 10832, delivered as mRNA
- HBsAg levels [1]: reductions
- editing efficiencies at the sites targeted by gRNA37 and gRNA40 [1]: comparable editing efficiencies

Molecule: C=C1[C@H](CO)[C@@H](O)C[C@@H]1n1cnc2c(=O)[nH]c(N)nc21 [Entecavir]
- HBV rebound (serum HBV DNA) ([2]; Entecavir 0.03 mg/kg orally for two weeks then discontinued, LNP 2 mg/kg): rebounds
- reduction in serum levels of HBV DNA at day 21 ([2]; Entecavir orally daily days 1-14, base editing reagents day 1 or days 1 and 14): approximately 2 log

B1: ABE-41: guide RNA SEQ ID NO: 5513 (nucleic acid)
guide: AGAAGATGAGGCATAGCAGCGTTTTAGAGCTAGAAATAGCAAGTTAAAATAAGGCTAGTCCGTTATCAACTTGAAAAAGTGGCACCGAGTCGGTGCTTTT
modifications: chemistry not fully specified
- % Editing average ([3]; base editor Abe7.10): 58%
- HBV markers relative to the no treatment control (cccDNA editing and/or viral replication) [4]: robust reduction in all HBV markers
- cccDNA Editing in PHH A > G % [5]: 56.0%

B2: cas12b-5: guide RNA SEQ ID NO: 380 (nucleic acid)
guide: mG*mU*mU*rCrUrGrUrCrUrUrUrUrGrGrUrCrArGrGrArCrArArCrCrGrUrCrUrArGrCrUrArUrArArGrUrGrCrUrGrCrArGrGrGrUrGrUrGrArGrArArArCrUrCrCrUrArUrUrGrCrUrGrGrArCrGrArUrGrUrCrUrCrUrUrArCrGrArGrGrCrArUrUrArGrCrArCrUrCrGrCrUrGrGrArUrGrUrGrUrCrUrGrCrGrGrC
- Average Editing Efficiency (%) [3]: 0.54%
- Editing Efficiency 1 (%) [3]: 0.12%
- Editing Efficiency 2 (%) [3]: 0.36%
- Editing Efficiency 3 (%) [3]: 1.14%

B3: PolyA-NGC1: guide RNA SEQ ID NO: 5499 (nucleic acid)
guide: GACCCTTATAAAGAATTTGGGTTTTAGAGCTAGAAATAGCAAGTTAAAATAAGGCTAGTCCGTTATCAACTTGAAAAAGTGGCACCGAGTCGGTGCTTTT
modifications: chemistry not fully specified
- HBV markers relative to the no treatment control (cccDNA editing and/or viral replication) [4]: robust reduction in all HBV markers
- efficacy in reduction of HbeAg [4]: 90%
- cccDNA Editing in PHH A > G % [5]: 60.4%
- editing [5]: high editing

B4: cas12b-11: guide RNA SEQ ID NO: 381 (nucleic acid)
guide: mG*mU*mU*rCrUrGrUrCrUrUrUrUrGrGrUrCrArGrGrArCrArArCrCrGrUrCrUrArGrCrUrArUrArArGrUrGrCrUrGrCrArGrGrGrUrGrUrGrArGrArArArCrUrCrCrUrArUrUrGrCrUrGrGrArCrGrArUrGrUrCrUrCrUrUrArCrGrArGrGrCrArUrUrArGrCrArCrCrArCrCrUrGrUrArUrUrCrCrCrArUrCrCrCrArU
- Average Editing Efficiency (%) [3]: 58.03%
- Editing Efficiency 1 (%) [3]: 44.34%
- Editing Efficiency 2 (%) [3]: 60.28%
- Editing Efficiency 3 (%) [3]: 69.47%
- HBV markers relative to the no treatment control (cccDNA editing and/or viral replication) [4]: robust reduction in all HBV markers

B5: PolyA-NGC2: guide RNA SEQ ID NO: 5500 (nucleic acid)
guide: TTTATAAGGGTCGATGTCCAGTTTTAGAGCTAGAAATAGCAAGTTAAAATAAGGCTAGTCCGTTATCAACTTGAAAAAGTGGCACCGAGTCGGTGCTTTT
modifications: chemistry not fully specified
- HBV markers relative to the no treatment control (cccDNA editing and/or viral replication) [4]: robust reduction in all HBV markers
- efficacy in reduction of HbeAg [4]: 90%
- cccDNA Editing in PHH A > G % [5]: 62.9%
- editing [5]: high editing

B6: cas12b-152: guide RNA SEQ ID NO: 5523 (nucleic acid)
guide: GUUCUGUCUUUUGGUCAGGACAACCGUCUAGCUAUAAGUGCUGCAGGGUGUGAGAAACUCCUAUUGCUGGACGAUGUCUCUUACGAGGCAUUAGCACAGAGAAGUCCACCACGAGUC
modifications: listed as RNA, chemistry not fully specified
- % Editing average ([3]; base editor Cas12b-ABE): 54%
- HBV markers relative to the no treatment control (cccDNA editing and/or viral replication) [4]: robust reduction in all HBV markers

B7: ABE-133: guide RNA SEQ ID NO: 5516 (nucleic acid)
guide: GAAGATGAGGCATAGCAGCAGTTTTAGAGCTAGAAATAGCAAGTTAAAATAAGGCTAGTCCGTTATCAACTTGAAAAAGTGGCACCGAGTCGGTGCTTTT
modifications: chemistry not fully specified
- % Editing average ([3]; base editor VRQR-ABE): 65%
- HBV markers relative to the no treatment control (cccDNA editing and/or viral replication) [4]: robust reduction in all HBV markers
- cccDNA Editing in PHH A > G % [5]: 76.0%

Source: patent US20240294914A1, “COMPOSITIONS AND METHODS FOR TREATING HEPATITIS B VIRUS INFECTION” (priority 2021, published 2024)
